B1: thrombin 15-mer aptamer protected with PolyA-Oligo10 on AuNP (mixed)
DNA: GGTTGGTGTGGTTGG
?: AAAAAAAAAAAAAAAAAAAACCAACCACAC
modifications: 5'-SH-(CH2)6 thiol on strand 1
B2: thrombin 15-mer aptamer on AuNP (Apt-AuNP) (ssDNA)
DNA: GGTTGGTGTGGTTGG
modifications: 5'-SH-(CH2)6 thiol

Columns and labels:
human alpha-thrombin [1] = molecular target: T1, human alpha-thrombin (Homo sapiens, UniProt P00734;P00734 328-363;364-622); test: blot with protected Apt-AuNP probe and gold enhancement; thrombin in 10-fold diluted human serum on PVDF; protection DNA 1 uM before 10x dilution; as low as 30 ng detected; binding buffer 100 mM NaCl, 20 mM Tris-HCl, 2 mM MgCl2, 5 mM KCl, 1 mM CaCl2, 0.02% Tween 20; pH and temperature of binding not stated
human alpha-thrombin [2] = molecular target: T1, human alpha-thrombin; test: blot with Apt-AuNP probe and gold enhancement; thrombin in 10-fold diluted human serum on PVDF; strong background from serum proteins; binding buffer 100 mM NaCl, 20 mM Tris-HCl, 2 mM MgCl2, 5 mM KCl, 1 mM CaCl2, 0.02% Tween 20; pH and temperature of binding not stated

Row | Binder | binding result (human alpha-thrombin [1]) | binding result (human alpha-thrombin [2])
1 | B1 | binds | –
2 | B2 | – | binds

Source: paper PMC5372222
